Experimental data taken from US20250304700A1, “ANTI-BLOOD DENDRITIC CELL ANTIGEN 2 ANTIBODIES AND USES THEREOF” (Biogen MA Inc., priority 2012, published 2025).
Substitutions are numbered along the chain they refer to.

T1: human BDCA2 ectodomain (Homo sapiens, UniProt Q8WTT0)
T1 construct: huBDCA2 ectodomain: residues 257-425 above (underlined); murine IgG2a Fc (with G4S linker) (N, cleaved yes); made in house
T1 sequence (Q8WTT0 45-213): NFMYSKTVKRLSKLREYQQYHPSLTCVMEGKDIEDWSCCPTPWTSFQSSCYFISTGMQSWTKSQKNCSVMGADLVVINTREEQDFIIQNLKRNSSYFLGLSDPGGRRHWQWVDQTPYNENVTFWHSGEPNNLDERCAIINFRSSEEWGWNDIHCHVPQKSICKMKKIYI

T2: surface human BDCA2 (Homo sapiens, UniProt Q8WTT0)
T2 construct: stably transfected DG44 CHO cells co-expressing full-length BDCA2 and FcεRIγcDNAs (human or cynomolgus monkey); expressed in transfected cells
T2 sequence (Q8WTT0 1-213): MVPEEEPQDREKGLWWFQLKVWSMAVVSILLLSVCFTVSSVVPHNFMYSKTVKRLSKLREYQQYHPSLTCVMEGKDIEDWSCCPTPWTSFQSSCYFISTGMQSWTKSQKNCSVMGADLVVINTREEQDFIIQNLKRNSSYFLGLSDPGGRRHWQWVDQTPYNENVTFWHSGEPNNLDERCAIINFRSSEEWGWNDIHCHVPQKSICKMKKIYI
T2 sequence (P30273 19-86 partner): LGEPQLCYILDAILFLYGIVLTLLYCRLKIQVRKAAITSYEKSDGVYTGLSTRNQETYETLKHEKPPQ

B1: H0/L1: hu24F4 variant, heavy chain version H0 (SEQ ID NO: 40), light chain version L1 (SEQ ID NO: 56) (antibody, V domains shown)
VH: EVQLVESGGGLVKPGGSLRLSCAASGFTFSTYTMSWVRQAPGKGLEWVSAISGSGGSTYYADSVKGRFTISRDNAKNSLYLQMNSLRAEDTAVYYCARDIYYNYGAWFAYWGQGTLVTVSS
VL: DIQLTQSPSSLSASVGDRVTITCKASQSVDYDGDSYMNWYQQKPGKAPKLLIYAASTLESGVPSRFSGSGSGTDFTLTISSLQPEDFATYYCQQSNEDPRTFGQGTKVEIK
B2: H6/L0: hu24F4 variant, heavy chain version H6 (SEQ ID NO: 52), light chain version L0 (SEQ ID NO: 54) (antibody, V domains shown)
VH: DVQLVESGGGLVKPGGSLRLSCAASGFTFSTYTMSWVRQAPGKGLEWVATISGGNNYGYSYPDSVKGRFTISRDNAKNSLYLQMNSLRAEDTAVYYCTRDIYYNYGAWFAYWGQGTLVTVSS
VL: B1 VL with D1A
B3: H3/L1: hu24F4 variant, heavy chain version H3 (SEQ ID NO: 46), light chain version L1 (antibody, V domains shown)
VH: B2 VH with D1E, A49S, G53P, N55D, N56S, Y57F, S60Y, K66Q, T98A
VL: B1 VL
B4: H1/L1: hu24F4 variant, heavy chain version H1 (SEQ ID NO: 42), light chain version L1 (antibody, V domains shown)
VH: B1 VH with A50T, G53P, S54G, G55D, G56S, S57F, T58G, A61P
VL: B1 VL
B5: H2/L1: hu24F4 variant, heavy chain version H2 (SEQ ID NO: 44), light chain version L1 (antibody, V domains shown)
VH: EVQLVESGGGLVKPGGSLRLSCAASGFTFSTYTMSWVRQAPGKGLEWVSTISPGDSSTIYYADSVKGRFTISRDNAKNSLYLQMNSLRAEDTAVYYCARDIYYNYGAWFAYWGQGTLVTVSS
VL: B1 VL
B6: H5/L1: hu24F4 variant, heavy chain version H5 (SEQ ID NO: 49), light chain version L1 (antibody, V domains shown)
VH: B2 VH with E6Q, G53P, N55D, N56S, Y57F, S60Y, K66Q, S86R, Q114R
VL: B1 VL

biological target: T1, human BDCA2 ectodomain; test: Octet binding of mAbs on anti-human Fc tips to monomeric huBDCA2; details: Example 5, conditioned medium, hu24F4 variants
Procedure: Site-directed mutagenesis was performed using Agilent's QuikChange II mutagenesis kit following the manufacturer's recommended protocol. The C95S variant was constructed using the mutagenic primer 5′ GCAACCTATTACTGTCAACAAAGTAATGAGGATCCTCGGAC 3′ (SEQ ID NO: 38) and its reverse complement, which introduced a new HincII site, producing plasmid pEAG2678. The C95T variant was constructed using the mutagenic primer 5′ CAACCTATTACTGTCAGCAAACTAATGAAGATCCTCGGACGTTCG 3′ (SEQ ID NO: 39) and its reverse complement, which removed a BamHI site, producing plasmid pEAG2679. Mutated plasmids were identified by screening for the introduced restriction site changes. The full-length light chain cDNA sequences in the resultant plasmids were confirmed by DNA sequencing. Wildtype ch24F4 and the C95S and C95T variant mAbs were expressed transiently in 293E cells by co-transfection of pYL672 and pYL671, pEAG2678 or pEAG2679. Conditioned medium was harvested at 2 days post-transfection. Titers (assayed by Octet on anti-human Fc tips) of both variants were similar to that of wildtype ch24F4, and Western blots of nonreducing SDS-PAGE indicated no gross aggregation or obvious clipping relative to wildtype ch24F4 mAb. […] Conditioned medium containing ch24F4 and the C95 variant mAbs was assayed by Octet for binding to human BDCA2 ectodomain. Antibodies from conditioned medium from transiently transfected cells were bound to anti-human Fc tips, then monomeric huBDCA2 was flowed over the Octet tips, to examine binding and dissociation.
Conditioned medium containing ch24F4 and all hu24F4 variant mAbs was assayed by Octet for binding to human BDCA2 ectodomain. The monomeric huBDCA2 ectodomain was prepared by proteolytic cleavage from the purified muIgG2a Fc-huBDCA2 fusion protein (relevant plasmid: pEAG2423). Antibodies from conditioned medium from transiently transfected cells were bound to anti-human Fc tips, and then monomeric huBDCA2 was flowed over the Octet tips, to examine binding and dissociation.
To explore the possibility of enhancing hu24F4 affinity by substitution at the position of the 24F4 version L1 CDR L3 unpaired cysteine (C95S in hu24F4 light chain expression vector pYL740), a number of version L1 variants were constructed by site-directed mutagenesis. Backmutation to the unpaired cysteine, i.e., S95C, was constructed by site-directed mutagenesis producing plasmid pYL749. Variants S95T, S95A, and S95V were constructed by site-directed mutagenesis producing plasmids pYL750, pYL751, and pYL752, respectively. The full-length light chain cDNA sequences in the resultant plasmids were confirmed by DNA sequencing. C95 variant hu24F4 mAbs were expressed transiently in 293E cells by co-transfection of hu24F4 H4 heavy chain pYL746 or hu24F4 H5 heavy chain pYL747 with hu24F4 L1 variant light chains C95S pYL740, S95C pYL749, S95T pYL750, S95A pYL751 or S95V pYL752 plasmids. Conditioned medium was harvested at 2 days post-transfection. Titers (assayed by Octet on anti-human Fc tips) of all variants were similar, and Western blots of nonreducing SDS-PAGE indicated no gross aggregation or obvious clipping. Conditioned medium containing the C95 variant mAbs was assayed by Octet for binding to human BDCA2 ectodomain. Antibodies from conditioned medium from transiently transfected cells were bound to anti-human Fc tips, then monomeric huBDCA2 was flowed over the Octet tips, to examine binding and dissociation. C95A variants had the slowest off-rates.

| kdis | kon | Molecule |
| --- | --- | --- |
| 9.5e-06 s⁻¹ | 100000 M⁻¹ s⁻¹ | B1 |
| 0.00137 s⁻¹ | 273000 M⁻¹ s⁻¹ | B2 |
| 0.00586 s⁻¹ | 452000 M⁻¹ s⁻¹ | B3 |
| 5.03e-06 s⁻¹ | 100000 M⁻¹ s⁻¹ | B4 |
| 3.35e-06 s⁻¹ | 100000 M⁻¹ s⁻¹ | B5 |

biological target: T2, surface human BDCA2; test: Direct binding dilution titration FACS on surface human BDCA2; details: transfected cells co-expressing BDCA2 and FcεRIγ
Procedure: Expression vectors (ch24F4 heavy chain vectors pYL670 or pYL672 and ch24F4 light chain vector pYL671) were co-transfected into 293-EBNA cells and transfected cells were tested for antibody secretion and specificity (empty vector- and a molecularly cloned irrelevant mAb vector-transfected cells served as controls). […] Direct FACS binding to surface human BDCA2 confirmed the specificity of ch24F4. The EC50 binding of both variants of ch24F4 was equivalent to that of the murine 24F4 mAb by direct binding to surface expressed human BDCA2 by dilution titration FACS assay. Stable CHO cell lines secreting ch24F4-huIgG1, kappa mAb and agly ch24F4-huIgG4/G1 hybrid kappa mAb were produced by co-transfection with pYL672/pYL671 and pYL670/pYL671, respectively.
Site-directed mutagenesis was performed using Agilent's QuikChange II mutagenesis kit following the manufacturer's recommended protocol. The C95S variant was constructed using the mutagenic primer 5′ GCAACCTATTACTGTCAACAAAGTAATGAGGATCCTCGGAC 3′ (SEQ ID NO: 38) and its reverse complement, which introduced a new HincII site, producing plasmid pEAG2678. The C95T variant was constructed using the mutagenic primer 5′ CAACCTATTACTGTCAGCAAACTAATGAAGATCCTCGGACGTTCG 3′ (SEQ ID NO: 39) and its reverse complement, which removed a BamHI site, producing plasmid pEAG2679. […]

| direct binding to surface human BDCA2, in words | Molecule |
| --- | --- |
| “best” variants | B6 |

test system: CD62L on the surface of human pDCs; test: CD62L surface expression on pDCs by flow cytometry; format: cell-based; details: PBMC pre-treated 30 minutes, then 10 μg/mL BIIB059 for 1 hour
Procedure: The MFI of CD62L was determined by gating on pDCs as defined by CD14−, CD20−, HLA-DR+ and CD123+.
Metalloproteinase are known to induce CD62L shedding from the surface of immune cells. […] The surface expression of CD62L was assayed by flow cytometry. GM6001 inhibited the BIIB059-mediated down-modulation CD62L in a dose dependent manner (FIG. 45).

| Molecule | BIIB059-mediated down-modulation of CD62L |
| --- | --- |
| CNC(=O)[C@H](Cc1c[nH]c2ccccc12)NC(=O)[C@@H](CC(=O)NO)CC(C)C [GM6001, reference compound] | inhibited |
